Test results from patent publication US20220010021A1 (Sanofi, published 2022).

Legend:
[1] = target: T1, human beta-Klotho (KLB) (human, UniProt Q86Z14 53-997); assay: BLI off-rate screen (Octet), Ab captured via Fc;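 further: antibody supernatants applied at 25 µg/mL, dissociation monitored over 1800 s in D-PBS with 0.1% BSA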
T1 construct: also called human KLB
T1 sequence (looked up): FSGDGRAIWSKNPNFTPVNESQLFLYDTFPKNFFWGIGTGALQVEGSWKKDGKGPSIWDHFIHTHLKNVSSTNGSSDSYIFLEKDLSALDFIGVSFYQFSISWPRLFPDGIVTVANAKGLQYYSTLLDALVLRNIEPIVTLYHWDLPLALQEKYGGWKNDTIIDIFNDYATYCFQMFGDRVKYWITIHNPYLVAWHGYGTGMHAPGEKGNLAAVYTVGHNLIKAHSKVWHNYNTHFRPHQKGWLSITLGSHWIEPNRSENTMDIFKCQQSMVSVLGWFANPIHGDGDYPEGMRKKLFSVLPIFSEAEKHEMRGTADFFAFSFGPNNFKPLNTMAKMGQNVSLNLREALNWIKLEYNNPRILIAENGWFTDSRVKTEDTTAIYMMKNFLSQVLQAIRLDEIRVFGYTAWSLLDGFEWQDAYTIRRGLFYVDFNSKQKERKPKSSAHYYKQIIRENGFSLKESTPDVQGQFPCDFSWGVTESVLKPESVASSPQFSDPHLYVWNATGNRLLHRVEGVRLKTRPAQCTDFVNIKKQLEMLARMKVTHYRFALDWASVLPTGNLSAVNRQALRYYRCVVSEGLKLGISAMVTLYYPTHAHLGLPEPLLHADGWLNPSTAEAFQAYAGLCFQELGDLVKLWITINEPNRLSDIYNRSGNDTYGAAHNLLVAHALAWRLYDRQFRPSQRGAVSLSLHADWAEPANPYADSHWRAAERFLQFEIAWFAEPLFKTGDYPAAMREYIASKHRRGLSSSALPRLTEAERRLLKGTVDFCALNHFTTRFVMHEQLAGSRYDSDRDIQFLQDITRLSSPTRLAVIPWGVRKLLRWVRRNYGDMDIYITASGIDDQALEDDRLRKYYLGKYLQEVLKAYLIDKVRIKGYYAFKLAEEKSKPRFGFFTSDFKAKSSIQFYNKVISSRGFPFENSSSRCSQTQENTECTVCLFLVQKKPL

[2] = target: human FGFR1c/KLB cell surface receptor complex on iLite FGF21 reporter cells (human, UniProt P11362 22-822; Q86Z14 1-1044); assay: cell-based or functional assay
[3] = target: T2, human beta-Klotho (KLB) (human, UniProt Q86Z14 53-997); assay: BLI off-rate screening (Octet), crude supernatant;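 further: supernatants tested at 25 µg/mL, dissociation from biosensors recorded in D-PBS with 0.1% BSA over 1800 s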
T2 construct: Bought protein; also called human KLB; β-Klotho
T2 sequence (looked up): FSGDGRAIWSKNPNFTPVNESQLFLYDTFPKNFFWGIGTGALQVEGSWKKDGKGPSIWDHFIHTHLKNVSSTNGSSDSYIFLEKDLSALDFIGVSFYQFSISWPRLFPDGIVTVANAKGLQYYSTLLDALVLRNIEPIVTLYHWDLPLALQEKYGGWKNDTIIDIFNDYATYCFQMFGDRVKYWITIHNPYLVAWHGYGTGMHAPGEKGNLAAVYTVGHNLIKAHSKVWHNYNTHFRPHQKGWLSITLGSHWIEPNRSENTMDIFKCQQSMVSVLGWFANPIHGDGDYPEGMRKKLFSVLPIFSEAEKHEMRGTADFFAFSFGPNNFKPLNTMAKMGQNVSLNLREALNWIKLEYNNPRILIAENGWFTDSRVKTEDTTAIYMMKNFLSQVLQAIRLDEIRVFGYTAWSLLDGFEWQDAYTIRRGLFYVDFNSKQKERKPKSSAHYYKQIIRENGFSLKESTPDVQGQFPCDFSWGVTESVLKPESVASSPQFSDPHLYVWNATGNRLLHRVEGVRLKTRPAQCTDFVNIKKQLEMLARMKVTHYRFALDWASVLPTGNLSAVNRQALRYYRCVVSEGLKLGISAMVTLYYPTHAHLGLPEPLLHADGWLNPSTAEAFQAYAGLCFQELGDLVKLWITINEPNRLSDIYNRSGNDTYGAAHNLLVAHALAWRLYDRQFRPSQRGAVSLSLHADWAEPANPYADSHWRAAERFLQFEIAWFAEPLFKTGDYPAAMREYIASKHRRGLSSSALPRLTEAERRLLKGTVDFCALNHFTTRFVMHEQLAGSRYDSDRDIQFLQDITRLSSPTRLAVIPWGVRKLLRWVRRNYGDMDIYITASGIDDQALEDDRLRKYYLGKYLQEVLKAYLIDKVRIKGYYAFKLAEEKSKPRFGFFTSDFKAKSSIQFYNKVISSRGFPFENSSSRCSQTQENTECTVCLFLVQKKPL

[4] = target: cell surface receptor composed of FGFR1c and co-receptor beta-Klotho (KLB) (human, UniProt P11362 22-822; Q86Z14 1-1044); assay: cell-based or functional assay
Wherever Mean E max (%) is given: reference of the scale not given here.
Wherever Mean E max, Luciferase reporter gene assay is given: reference of the scale not given here.

Sequence of cell surface receptor composed of FGFR1c and co-receptor beta-Klotho (KLB) (P11362 22-822, chain 1 of 2): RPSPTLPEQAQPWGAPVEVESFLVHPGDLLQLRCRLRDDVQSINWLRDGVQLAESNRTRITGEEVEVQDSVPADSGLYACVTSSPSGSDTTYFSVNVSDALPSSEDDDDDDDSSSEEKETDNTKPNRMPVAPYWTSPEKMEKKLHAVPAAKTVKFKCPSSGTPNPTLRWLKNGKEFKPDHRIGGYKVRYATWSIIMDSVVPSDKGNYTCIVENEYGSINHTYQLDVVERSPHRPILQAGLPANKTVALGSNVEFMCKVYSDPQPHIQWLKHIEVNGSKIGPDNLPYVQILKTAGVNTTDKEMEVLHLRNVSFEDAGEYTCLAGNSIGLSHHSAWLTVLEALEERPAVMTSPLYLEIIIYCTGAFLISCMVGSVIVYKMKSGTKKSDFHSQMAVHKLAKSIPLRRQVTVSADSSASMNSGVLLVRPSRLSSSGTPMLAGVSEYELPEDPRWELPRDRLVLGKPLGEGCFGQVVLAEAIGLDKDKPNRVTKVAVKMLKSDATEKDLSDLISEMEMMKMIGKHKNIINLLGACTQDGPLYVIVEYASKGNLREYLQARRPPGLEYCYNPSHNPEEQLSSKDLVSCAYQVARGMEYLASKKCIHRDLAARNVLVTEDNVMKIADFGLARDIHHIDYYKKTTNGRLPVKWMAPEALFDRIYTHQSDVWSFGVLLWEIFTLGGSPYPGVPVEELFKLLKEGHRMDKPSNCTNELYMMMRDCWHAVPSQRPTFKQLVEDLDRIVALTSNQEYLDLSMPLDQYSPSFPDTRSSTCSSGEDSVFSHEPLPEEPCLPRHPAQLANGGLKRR
Sequence of cell surface receptor composed of FGFR1c and co-receptor beta-Klotho (KLB) (Q86Z14 whole entry, chain 2 of 2): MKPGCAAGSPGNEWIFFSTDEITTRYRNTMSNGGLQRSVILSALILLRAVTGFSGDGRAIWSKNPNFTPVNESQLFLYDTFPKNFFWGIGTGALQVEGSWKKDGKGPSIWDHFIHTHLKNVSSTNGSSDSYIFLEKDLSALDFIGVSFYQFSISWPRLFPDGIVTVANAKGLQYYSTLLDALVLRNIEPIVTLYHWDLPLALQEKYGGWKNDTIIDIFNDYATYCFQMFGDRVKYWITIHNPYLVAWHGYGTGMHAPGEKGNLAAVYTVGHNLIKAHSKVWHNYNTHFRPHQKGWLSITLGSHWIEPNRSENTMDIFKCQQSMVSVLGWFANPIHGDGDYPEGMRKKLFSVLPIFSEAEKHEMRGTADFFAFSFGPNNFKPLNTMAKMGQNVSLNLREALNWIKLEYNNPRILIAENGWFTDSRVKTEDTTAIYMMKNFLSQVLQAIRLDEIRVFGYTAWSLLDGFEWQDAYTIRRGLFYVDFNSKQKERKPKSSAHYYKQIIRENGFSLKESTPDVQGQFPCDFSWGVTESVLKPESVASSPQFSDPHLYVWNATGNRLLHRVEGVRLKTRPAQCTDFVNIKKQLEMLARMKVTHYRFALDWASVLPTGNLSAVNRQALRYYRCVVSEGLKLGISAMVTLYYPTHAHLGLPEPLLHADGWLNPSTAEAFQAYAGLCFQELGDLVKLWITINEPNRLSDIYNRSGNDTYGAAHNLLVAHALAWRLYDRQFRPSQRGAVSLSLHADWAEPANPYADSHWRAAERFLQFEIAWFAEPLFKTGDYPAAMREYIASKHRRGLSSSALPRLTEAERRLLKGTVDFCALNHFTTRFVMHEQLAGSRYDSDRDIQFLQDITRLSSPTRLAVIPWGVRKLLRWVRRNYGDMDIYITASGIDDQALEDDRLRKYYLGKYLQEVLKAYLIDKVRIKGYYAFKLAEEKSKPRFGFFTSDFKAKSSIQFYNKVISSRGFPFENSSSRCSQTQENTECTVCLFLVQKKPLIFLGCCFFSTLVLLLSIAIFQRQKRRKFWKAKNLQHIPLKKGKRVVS
Sequence of human FGFR1c/KLB cell surface receptor complex on iLite FGF21 reporter cells (P11362 22-822, chain 1 of 2): as the sequence (P11362 22-822, chain 1 of 2) above
Sequence of human FGFR1c/KLB cell surface receptor complex on iLite FGF21 reporter cells (Q86Z14 whole entry, chain 2 of 2): as the sequence (Q86Z14 whole entry, chain 2 of 2) above

Row | Binder | koff [1] | Mean E max (%) [2] | Mean EC50 [2] | koff [3] | Mean E max, Luciferase reporter gene assay [4] | Mean EC50, Luciferase reporter gene assay [4]
1 | 16H7 variant, light chain S55G (antibody, human IgG4 S228P, lambda, V domains shown, IgG4 backbone) VH: not shown VL: SYVLTQPPSVSVAPGQTARITCGGNNIGSESVHWYQQKPGQAPVLVVYDDSDRPGGIPERFSGSNSGNTATLTISRVEAGDEADYYCQVWDGNSDHVVFGGGTKLTVLG | 3.5e-05 s⁻¹ | 104% | 0.128 nM | – | – | –
2 | 16H7 variant, light chain S55H (antibody, human IgG4 S228P, lambda, V domains shown, IgG4 backbone) VH: not shown VL: SYVLTQPPSVSVAPGQTARITCGGNNIGSESVHWYQQKPGQAPVLVVYDDSDRPHGIPERFSGSNSGNTATLTISRVEAGDEADYYCQVWDGNSDHVVFGGGTKLTVLG | 4e-06 s⁻¹ | 111% | 0.122 nM | – | – | –
3 | 16H7 variant, light chain S55I (antibody, human IgG4 S228P, lambda, V domains shown, IgG4 backbone) VH: not shown VL: SYVLTQPPSVSVAPGQTARITCGGNNIGSESVHWYQQKPGQAPVLVVYDDSDRPIGIPERFSGSNSGNTATLTISRVEAGDEADYYCQVWDGNSDHVVFGGGTKLTVLG | 1.3e-05 s⁻¹ | 110% | 0.133 nM | – | – | –
4 | 16H7 variant, light chain S55L (antibody, IgG4, V domains shown, IgG4 backbone; copies: 2 + 2) VH: not shown VL: SYVLTQPPSVSVAPGQTARITCGGNNIGSESVHWYQQKPGQAPVLVVYDDSDRPLGIPERFSGSNSGNTATLTISRVEAGDEADYYCQVWDGNSDHVVFGGGTKLTVLG | 8.4e-05 s⁻¹ | 97% | 0.126 nM | – | – | –
5 | 16H7 variant, light chain S55N (antibody, human IgG4 S228P, lambda, V domains shown, IgG4 backbone) VH: not shown VL: SYVLTQPPSVSVAPGQTARITCGGNNIGSESVHWYQQKPGQAPVLVVYDDSDRPNGIPERFSGSNSGNTATLTISRVEAGDEADYYCQVWDGNSDHVVFGGGTKLTVLG | 1.7e-05 s⁻¹ | 111% | 0.141 nM | – | – | –
6 | 16H7 variant, light chain S55P (antibody, human IgG4 S228P, lambda, V domains shown, IgG4 backbone) VH: not shown VL: SYVLTQPPSVSVAPGQTARITCGGNNIGSESVHWYQQKPGQAPVLVVYDDSDRPPGIPERFSGSNSGNTATLTISRVEAGDEADYYCQVWDGNSDHVVFGGGTKLTVLG | 3.2e-05 s⁻¹ | 99% | 0.109 nM | – | – | –
7 | 16H7 variant, light chain S55R (antibody, IgG4, V domains shown, IgG4 backbone; copies: 2 + 2) VH: not shown VL: SYVLTQPPSVSVAPGQTARITCGGNNIGSESVHWYQQKPGQAPVLVVYDDSDRPRGIPERFSGSNSGNTATLTISRVEAGDEADYYCQVWDGNSDHVVFGGGTKLTVLG | 4.9e-05 s⁻¹ | 100% | 0.143 nM | – | – | –
8 | 16H7 variant, light chain S55T (antibody, human IgG4 S228P, lambda, V domains shown, IgG4 backbone) VH: not shown VL: SYVLTQPPSVSVAPGQTARITCGGNNIGSESVHWYQQKPGQAPVLVVYDDSDRPTGIPERFSGSNSGNTATLTISRVEAGDEADYYCQVWDGNSDHVVFGGGTKLTVLG | 1.3e-05 s⁻¹ | 100% | 0.109 nM | – | – | –
9 | 16H7 variant, light chain S55V (antibody, human IgG4 S228P, lambda, V domains shown, IgG4 backbone) VH: not shown VL: SYVLTQPPSVSVAPGQTARITCGGNNIGSESVHWYQQKPGQAPVLVVYDDSDRPVGIPERFSGSNSGNTATLTISRVEAGDEADYYCQVWDGNSDHVVFGGGTKLTVLG | 4.4e-05 s⁻¹ | 100% | 0.131 nM | – | – | –
10 | 16H7 variant, light chain S55Y (antibody, IgG4, V domains shown, IgG4 backbone; copies: 2 + 2) VH: not shown VL: SYVLTQPPSVSVAPGQTARITCGGNNIGSESVHWYQQKPGQAPVLVVYDDSDRPYGIPERFSGSNSGNTATLTISRVEAGDEADYYCQVWDGNSDHVVFGGGTKLTVLG | 1.8e-05 s⁻¹ | 113% | 0.126 nM | – | – | –
11 | 16H7 light chain variant V32R (antibody, IgG4, V domains shown, IgG4 backbone) VH: not shown VL: SYVLTQPPSVSVAPGQTARITCGGNNIGSESRHWYQQKPGQAPVLVVYDDSDRPSGIPERFSGSNSGNTATLTISRVEAGDEADYYCQVWDGNSDHVVFGGGTKLTVLG | – | – | – | 2.3e-06 s⁻¹ | 112% | 0.135 nM
12 | 16H7 light chain variant D49G (antibody, IgG4, V domains shown, IgG4 backbone) VH: not shown VL: SYVLTQPPSVSVAPGQTARITCGGNNIGSESVHWYQQKPGQAPVLVVYGDSDRPSGIPERFSGSNSGNTATLTISRVEAGDEADYYCQVWDGNSDHVVFGGGTKLTVLG | – | – | – | 0.00029 s⁻¹ | 102% | 0.102 nM
